Measured values reported in PMC11002876, “KcsA-Kv1.x chimeras with complete ligand-binding sites provide improved predictivity for screening selective Kv1.x blockers” (The Journal of Biological Chemistry, 2024).

What was measured:
[1] = target: KcsA-Kv1.3 turret-filter chimera (Streptomyces lividans | human); assay: ELISA
[2] = target: KcsA-Kv1.3 turret-only chimera (Streptomyces lividans | human); assay: ELISA
[3] = tested on: human Kv1.3 channel (hKv1.3); assay: Whole-cell patch-clamp of phage-displayed toxins, hKv1.3 in human lymphocytes; type: cell-based; conditions: perfusion concentration; phage-displayed toxin; experimentally titrated; N = 3
Procedure: Human Kv1.3 currents were recorded from activated peripheral blood mononuclear cells (see below) 3 to 4 days after activation. Heparinized human peripheral venous blood was obtained from healthy volunteers. Mononuclear cells were separated through Histopaque-1077 density gradient centrifugation. Collected cells were washed twice with Ca^2+- and Mg^2+-free Hanks’ solution containing 25 mM Hepes buffer, pH 7.4. Cells were cultured for 3 to 4 days in 24-well culture plates in a 5% CO2 incubator at 37 °C, in RPMI 1640 medium supplemented with 10% fetal calf serum (Sigma-Aldrich), 100 μg/ml penicillin, 100 μg/ml streptomycin, and 2 mM L-glutamine (density, 0.5 × 10^6 cells per ml). Phytohemagglutinin A (Sigma-Aldrich) was added to the medium at 10 μg/ml to amplify the Kv1.3 expression. Cells were washed gently twice with 2 ml of ECS for the patch-clamp experiments.
Conventional whole-cell patch-clamp electrophysiology was used to record ionic currents. Micropipettes were pulled from GC150F-7.5 borosilicate capillaries (Harvard Apparatus) with tip diameters between 0.5 and 1 μm resulting in a tip resistance of 2 to 8 MΩ in the extracellular (bath) solution. All measurements were carried out by using Axopatch 200B amplifier connected to a personal computer using Axon Digidata 1550A data acquisition hardware and Pclamp10.7 software (https://support.moleculardevices.com/s/article/Axon-pCLAMP-10-Electrophysiology-Data-Acquisition-Analysis-Software-Download-Page). The holding potential was −120 mV. Records were discarded when leak at the holding potential was >10% of peak current at the test potential. Experiments were performed at room temperature (20–24 °C). Before analysis, whole-cell current traces were corrected for ohmic leakage and digitally filtered with a three-point boxcar smoothing filter.
Solutions: all salts and components of the solutions were purchased from Sigma Aldrich. The extracellular (bath) solution (ECS) contained 145 mM NaCl, 5 mM KCl, 2.5 mM CaCl2, 1 mM MgCl2, 10 mM Hepes, and 5.5 mM glucose (pH 7.35 with NaOH), while the intracellular (pipette) solution (ICS) contained 140 mM KF, 2 mM MgCl2, 1 mM CaCl2, 11 mM EGTA, and 10 mM Hepes (pH 7.22 with KOH). The osmolarity of the ECS and ICS were 302 mOsM.
Native peptides, phage-expressed peptides, and positive controls used for them were dissolved in ECS supplemented with 0.1 mg/ml bovine serum albumin (BSA; Sigma-Aldrich Hungary). Bath perfusion around the measured cell with different extracellular solutions was achieved using a gravity flow micro perfusion system using a rate of 0.5 ml/min. Excess fluid was removed continuously.
Voltage protocols: For measurement of Kv1.1 to 1.3 currents, voltage steps to +50 mV were applied from a holding potential of −120 mV and the peak current was measured every 15 s. For Kv1.3 currents, 15-ms-long depolarizing pulses were applied. For Kv1.1, 50-ms-long–activating stimuli were used. Kv1.2 currents were evoked by 200-ms-long pulses. […] The remaining current fraction at a given molar concentration was calculated as I/I0, where I0 is the peak current in the absence and I is the peak current at equilibrium block or […] after ∼2 min perfusion by the investigated peptide/phage.
Phage display test solutions were prepared according to routine phage display protocols ([62]). Phosphorylated and annealed oligonucleotides encoding the peptide construct were ligated into linearized pAS62 phagemid vector (https://patents.google.com/patent/WO2022144560A1/en) at a vector/insert ratio of 1:3. The final phagemid construct harbored a signal sequence followed by the peptide of interest, a linker sequence ([…]), and the C-terminal part of the P3 coat protein (amino acids: 216-424 of NP_510891.1). Chemically competent XL1-Blue E. coli cells (2022249, Agilent) were transformed with the ligation product and then streaked onto ampicillin (100 μg/ml) containing LB/Amp plates and incubated for 16 h at 37 °C.

[4] = target: KcsA-Kv1.1 turret-only chimera (Streptomyces lividans | human); assay: ELISA
[5] = target: KcsA-Kv1.2 turret-filter chimera (Streptomyces lividans | human); assay: ELISA
[6] = target: KcsA-Kv1.2 turret-only chimera (Streptomyces lividans | human); assay: ELISA
[7] = target: KcsA-Kv1.1 turret-filter chimera (Streptomyces lividans | human); assay: ELISA
[8] = target: KcsA-Kv1.1 turret-filter chimera (Streptomyces lividans | human); assay: SDS-PAGE and western blot; purified proteins, 0.5 ug/well, Tris-Glycine gradient gel, 200 V 55 min; western blot with anti-His antibody; monomers and tetramers by migration
[9] = target: KcsA-Kv1.1 turret-filter chimera (Streptomyces lividans | human); assay: native gel or EMSA
[10] = target: KcsA-Kv1.1 turret-only chimera (Streptomyces lividans | human); assay: SDS-PAGE and western blot; purified proteins, 0.5 ug/well, Tris-Glycine gradient gel, 200 V 55 min; western blot with anti-His antibody; monomers and tetramers by migration
[11] = target: KcsA-Kv1.1 turret-only chimera (Streptomyces lividans | human); assay: native gel or EMSA
[12] = target: KcsA-Kv1.2 turret-filter chimera (Streptomyces lividans | human); assay: native gel or EMSA
[13] = target: KcsA-Kv1.2 turret-only chimera (Streptomyces lividans | human); assay: native gel or EMSA
[14] = target: KcsA-Kv1.3 turret-filter chimera (Streptomyces lividans | human); assay: SDS-PAGE and western blot; purified proteins, 0.5 ug/well, Tris-Glycine gradient gel, 200 V 55 min; western blot with anti-His antibody; monomers and tetramers by migration
[15] = target: KcsA-Kv1.3 turret-filter chimera (Streptomyces lividans | human); assay: native gel or EMSA
[16] = target: KcsA-Kv1.3 turret-only chimera (Streptomyces lividans | human); assay: SDS-PAGE and western blot; purified proteins, 0.5 ug/well, Tris-Glycine gradient gel, 200 V 55 min; western blot with anti-His antibody; monomers and tetramers by migration
[17] = target: KcsA-Kv1.3 turret-only chimera (Streptomyces lividans | human); assay: native gel or EMSA
[18] = target: human Kv1.3 voltage-gated potassium channel on activated human lymphocytes (human (endogenous in peripheral blood mononuclear cells)) (UniProt P22001)
human Kv1.3 voltage-gated potassium channel on activated human lymphocytes (human (endogenous in peripheral blood mononuclear cells)), sequence (P22001 whole entry): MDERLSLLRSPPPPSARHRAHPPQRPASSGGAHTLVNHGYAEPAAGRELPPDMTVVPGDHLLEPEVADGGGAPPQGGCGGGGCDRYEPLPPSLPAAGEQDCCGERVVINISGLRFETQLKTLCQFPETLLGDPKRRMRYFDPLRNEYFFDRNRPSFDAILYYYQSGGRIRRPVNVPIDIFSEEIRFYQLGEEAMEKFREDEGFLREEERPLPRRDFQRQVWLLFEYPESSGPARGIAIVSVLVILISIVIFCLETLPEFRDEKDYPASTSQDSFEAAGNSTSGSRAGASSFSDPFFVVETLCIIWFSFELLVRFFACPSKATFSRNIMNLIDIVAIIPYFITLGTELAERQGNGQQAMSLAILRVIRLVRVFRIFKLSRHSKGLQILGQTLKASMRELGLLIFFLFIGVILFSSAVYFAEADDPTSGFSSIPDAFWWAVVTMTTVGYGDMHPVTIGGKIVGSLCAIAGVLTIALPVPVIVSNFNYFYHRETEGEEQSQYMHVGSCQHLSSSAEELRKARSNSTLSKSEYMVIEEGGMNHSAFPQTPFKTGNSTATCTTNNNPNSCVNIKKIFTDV

[19] = target: human Kv1.3 voltage-gated potassium channel on activated human lymphocytes (human (endogenous in peripheral blood mononuclear cells)) (UniProt P22001); remark: listed apart in the source

“Hongotoxin-1, synthetic peptide (from UniProt P59847 1-39)” showed an IC50 [1] of 0.108 nM and an IC50 [2] of 0.671 nM.

“KTX1-phage: KTX1 fused to the P3 coat protein of M13 phage with an eight amino acid linker (GVEINVKCSGSPQCLKPCKDAGMRFGKCMNRKCHCTPK; not fully specified; left off: M13 P3 coat protein C-terminal part (amino acids 216-424 of NP_510891.1) behind the linker GSASSATR, C-terminal, kept)” was tested, and the “phage concentration giving approximate 50% block of hKv1.3 current” value [3] was ~3.6 × 10^13 particle/ml.

For “Kaliotoxin-1, synthetic peptide (from UniProt P24662 1-38)”, the IC50 [1] was 98.2 nM, the IC50 [4] was 1.27 nM and the IC50 [5] was 205 nM. It also gave an IC50 [6] of 0.185 nM, an IC50 [7] of 1.49 nM and an IC50 [2] of 0.416 nM.

KcsA-Kv1.1 turret-filter chimera gave a stoichiometry N [8] of 4 and a stoichiometry N [9] of 4.

Work on KcsA-Kv1.1 turret-only chimera yielded a stoichiometry N [10] of 4 and a stoichiometry N [11] of 4.

KcsA-Kv1.2 turret-filter chimera gave a stoichiometry N [12] of 4.

KcsA-Kv1.2 turret-only chimera showed a stoichiometry N [13] of 4.

KcsA-Kv1.3 turret-filter chimera showed a stoichiometry N [14] of 4 and a stoichiometry N [15] of 4.

KcsA-Kv1.3 turret-only chimera showed a stoichiometry N [16] of 4 and a stoichiometry N [17] of 4.

“Stichodactyla toxin ShK, synthetic peptide” showed an IC50 [4] of 0.317 nM, an IC50 [5] of 15.9 nM and an IC50 [6] of 0.07 nM. The IC50 [7] was 0.271 nM.

For “Vm24 toxin displayed on M13 phage as a fusion to the P3 coat protein (peptide)”, the estimated relative potency calculated from the phage concentration required to reach 50% blocking effect on the Kv1.3 current (relative potency) [18] was 1 and the phage concentration that gave a similar (50-70%) inhibition of the hKv1.3 current, whole-cell patch-clamp on human lymphocytes [19] was 6e+10 particle/ml.

Vm24 toxin, synthetic peptide was tested, and the IC50 [1] was 0.036 nM and the IC50 [2] was 0.577 nM.

With VSCTGSKDCYAPCRKQTGCPNAKCINKSCKCYGC [Maurotoxin, synthetic peptide] the IC50 [4] was > 1000 nM, the IC50 [5] was 0.129 nM and the IC50 [6] was > 1000 nM. For the same molecule, the IC50 [7] was > 1000 nM.
